Measured values: paper PMC7461809

Biological target: EcoWI endonuclease
Assay: SEC; analytical Superdex 200 10/300 GL, 4°C, 0.38 ml/min, 100 mM NaCl, 20 mM Tris-HCl pH 8, 1 mM DTT, 0.1 mM EDTA, 5% glycerol; purified EcoWI at 2.7 mg/ml; relative molecular weight from Kav against standard proteins

stoichiometry N: 2
Substance: EcoWI endonuclease (enzyme)
